These results are taken from article PMC7117317 (Veterinary Microbiology, 2019).

To fix the notation:
B1: Nb20 (VHH)
VHH: QVQLQESGGGSVQSGGSLRLSCRAVDGSGACMGWFRQAPGKEREGVAVIARDGSTNYAHSVRGRFTISQDNAKNTLYLQMNGLKPDDTAMYYCAAGPRFRSCSTSPSFYTSWGQGTQVTVSS
B2: Nb5 (VHH)
VHH: QVQLQESGGGSVQSGGSLRLSCAASTYTYSSGCMGWFRQAPGKEREGVATIDSDGSTTYADSVKGRFTISQDNAKNTLQLQMNSLKPEDTAMYYCAADDFWICSIIGRPGVADFRYWGQGTQVTVSS
B3: Nb54 (VHH)
VHH: QVQLQESGGGSVQSGGSLRLSCAASTYTYNNYCMGWFRQAPGKEREGVASIERFGHTIFADSVKGRFTISRDNTKNTLYLQMNSLKPEDTAMYYCATERPSAYCSDSFTFNYWGQGTQVTVSS
B4: Nb114 (VHH)
VHH: QVQLQESGGGSVQSGGSLRLSCAASGYTYQTYSMGWFRQAPGKEREGVAAIDDDGSTMYADSVKGRFTISQDSAKNTLYLQMNSLKPEDTAVYYCAASGFRGLLEFMRNIWVDYWGQGTQVTVSS
B5: Nb100 (VHH)
VHH: QVQLQESGGGSVQSGGSLRLSCAASGYRRYCMAWFRQAPGKEREGVASIRSDGSTRYADSVKGRFSISQDNAENTLYLQMNSLKPEDTAMYYCAADSSAGCYSVHNSLLARSTYNYWGQGTQVTVSS
B6: Nb60 (VHH)
VHH: QVQLQESGGGSVQPGGSLRLSCAASGFAVSSVAMSWVRQAPGKGLEWVSSINRYGFRVYADSVTGRFTISRDNAKNTLYLQLNSLKTEDTAMYYCSKDDDANWLNGRRGQGTQVTVSS
B7: Nb45 (VHH)
VHH: QVQLQESGGGSVQSGGSLRLSCARSGYARRIYSMAWFRQAPGKEREGVAILNDDGNPTYAGSVKGRFTISRDNAKNTLYLQMNSLKPEDTAMYYCAADLTAQSYTRDRLLTSAYNVWGQGTQVTVSS

For this assay, the target named is BVDV NS5B-His recombinant protein (Bovine viral diarrhea virus 1, strain …, UniProt P19711). In words: ELISA.
BVDV NS5B-His recombinant protein, sequence (P19711 whole entry, looked up): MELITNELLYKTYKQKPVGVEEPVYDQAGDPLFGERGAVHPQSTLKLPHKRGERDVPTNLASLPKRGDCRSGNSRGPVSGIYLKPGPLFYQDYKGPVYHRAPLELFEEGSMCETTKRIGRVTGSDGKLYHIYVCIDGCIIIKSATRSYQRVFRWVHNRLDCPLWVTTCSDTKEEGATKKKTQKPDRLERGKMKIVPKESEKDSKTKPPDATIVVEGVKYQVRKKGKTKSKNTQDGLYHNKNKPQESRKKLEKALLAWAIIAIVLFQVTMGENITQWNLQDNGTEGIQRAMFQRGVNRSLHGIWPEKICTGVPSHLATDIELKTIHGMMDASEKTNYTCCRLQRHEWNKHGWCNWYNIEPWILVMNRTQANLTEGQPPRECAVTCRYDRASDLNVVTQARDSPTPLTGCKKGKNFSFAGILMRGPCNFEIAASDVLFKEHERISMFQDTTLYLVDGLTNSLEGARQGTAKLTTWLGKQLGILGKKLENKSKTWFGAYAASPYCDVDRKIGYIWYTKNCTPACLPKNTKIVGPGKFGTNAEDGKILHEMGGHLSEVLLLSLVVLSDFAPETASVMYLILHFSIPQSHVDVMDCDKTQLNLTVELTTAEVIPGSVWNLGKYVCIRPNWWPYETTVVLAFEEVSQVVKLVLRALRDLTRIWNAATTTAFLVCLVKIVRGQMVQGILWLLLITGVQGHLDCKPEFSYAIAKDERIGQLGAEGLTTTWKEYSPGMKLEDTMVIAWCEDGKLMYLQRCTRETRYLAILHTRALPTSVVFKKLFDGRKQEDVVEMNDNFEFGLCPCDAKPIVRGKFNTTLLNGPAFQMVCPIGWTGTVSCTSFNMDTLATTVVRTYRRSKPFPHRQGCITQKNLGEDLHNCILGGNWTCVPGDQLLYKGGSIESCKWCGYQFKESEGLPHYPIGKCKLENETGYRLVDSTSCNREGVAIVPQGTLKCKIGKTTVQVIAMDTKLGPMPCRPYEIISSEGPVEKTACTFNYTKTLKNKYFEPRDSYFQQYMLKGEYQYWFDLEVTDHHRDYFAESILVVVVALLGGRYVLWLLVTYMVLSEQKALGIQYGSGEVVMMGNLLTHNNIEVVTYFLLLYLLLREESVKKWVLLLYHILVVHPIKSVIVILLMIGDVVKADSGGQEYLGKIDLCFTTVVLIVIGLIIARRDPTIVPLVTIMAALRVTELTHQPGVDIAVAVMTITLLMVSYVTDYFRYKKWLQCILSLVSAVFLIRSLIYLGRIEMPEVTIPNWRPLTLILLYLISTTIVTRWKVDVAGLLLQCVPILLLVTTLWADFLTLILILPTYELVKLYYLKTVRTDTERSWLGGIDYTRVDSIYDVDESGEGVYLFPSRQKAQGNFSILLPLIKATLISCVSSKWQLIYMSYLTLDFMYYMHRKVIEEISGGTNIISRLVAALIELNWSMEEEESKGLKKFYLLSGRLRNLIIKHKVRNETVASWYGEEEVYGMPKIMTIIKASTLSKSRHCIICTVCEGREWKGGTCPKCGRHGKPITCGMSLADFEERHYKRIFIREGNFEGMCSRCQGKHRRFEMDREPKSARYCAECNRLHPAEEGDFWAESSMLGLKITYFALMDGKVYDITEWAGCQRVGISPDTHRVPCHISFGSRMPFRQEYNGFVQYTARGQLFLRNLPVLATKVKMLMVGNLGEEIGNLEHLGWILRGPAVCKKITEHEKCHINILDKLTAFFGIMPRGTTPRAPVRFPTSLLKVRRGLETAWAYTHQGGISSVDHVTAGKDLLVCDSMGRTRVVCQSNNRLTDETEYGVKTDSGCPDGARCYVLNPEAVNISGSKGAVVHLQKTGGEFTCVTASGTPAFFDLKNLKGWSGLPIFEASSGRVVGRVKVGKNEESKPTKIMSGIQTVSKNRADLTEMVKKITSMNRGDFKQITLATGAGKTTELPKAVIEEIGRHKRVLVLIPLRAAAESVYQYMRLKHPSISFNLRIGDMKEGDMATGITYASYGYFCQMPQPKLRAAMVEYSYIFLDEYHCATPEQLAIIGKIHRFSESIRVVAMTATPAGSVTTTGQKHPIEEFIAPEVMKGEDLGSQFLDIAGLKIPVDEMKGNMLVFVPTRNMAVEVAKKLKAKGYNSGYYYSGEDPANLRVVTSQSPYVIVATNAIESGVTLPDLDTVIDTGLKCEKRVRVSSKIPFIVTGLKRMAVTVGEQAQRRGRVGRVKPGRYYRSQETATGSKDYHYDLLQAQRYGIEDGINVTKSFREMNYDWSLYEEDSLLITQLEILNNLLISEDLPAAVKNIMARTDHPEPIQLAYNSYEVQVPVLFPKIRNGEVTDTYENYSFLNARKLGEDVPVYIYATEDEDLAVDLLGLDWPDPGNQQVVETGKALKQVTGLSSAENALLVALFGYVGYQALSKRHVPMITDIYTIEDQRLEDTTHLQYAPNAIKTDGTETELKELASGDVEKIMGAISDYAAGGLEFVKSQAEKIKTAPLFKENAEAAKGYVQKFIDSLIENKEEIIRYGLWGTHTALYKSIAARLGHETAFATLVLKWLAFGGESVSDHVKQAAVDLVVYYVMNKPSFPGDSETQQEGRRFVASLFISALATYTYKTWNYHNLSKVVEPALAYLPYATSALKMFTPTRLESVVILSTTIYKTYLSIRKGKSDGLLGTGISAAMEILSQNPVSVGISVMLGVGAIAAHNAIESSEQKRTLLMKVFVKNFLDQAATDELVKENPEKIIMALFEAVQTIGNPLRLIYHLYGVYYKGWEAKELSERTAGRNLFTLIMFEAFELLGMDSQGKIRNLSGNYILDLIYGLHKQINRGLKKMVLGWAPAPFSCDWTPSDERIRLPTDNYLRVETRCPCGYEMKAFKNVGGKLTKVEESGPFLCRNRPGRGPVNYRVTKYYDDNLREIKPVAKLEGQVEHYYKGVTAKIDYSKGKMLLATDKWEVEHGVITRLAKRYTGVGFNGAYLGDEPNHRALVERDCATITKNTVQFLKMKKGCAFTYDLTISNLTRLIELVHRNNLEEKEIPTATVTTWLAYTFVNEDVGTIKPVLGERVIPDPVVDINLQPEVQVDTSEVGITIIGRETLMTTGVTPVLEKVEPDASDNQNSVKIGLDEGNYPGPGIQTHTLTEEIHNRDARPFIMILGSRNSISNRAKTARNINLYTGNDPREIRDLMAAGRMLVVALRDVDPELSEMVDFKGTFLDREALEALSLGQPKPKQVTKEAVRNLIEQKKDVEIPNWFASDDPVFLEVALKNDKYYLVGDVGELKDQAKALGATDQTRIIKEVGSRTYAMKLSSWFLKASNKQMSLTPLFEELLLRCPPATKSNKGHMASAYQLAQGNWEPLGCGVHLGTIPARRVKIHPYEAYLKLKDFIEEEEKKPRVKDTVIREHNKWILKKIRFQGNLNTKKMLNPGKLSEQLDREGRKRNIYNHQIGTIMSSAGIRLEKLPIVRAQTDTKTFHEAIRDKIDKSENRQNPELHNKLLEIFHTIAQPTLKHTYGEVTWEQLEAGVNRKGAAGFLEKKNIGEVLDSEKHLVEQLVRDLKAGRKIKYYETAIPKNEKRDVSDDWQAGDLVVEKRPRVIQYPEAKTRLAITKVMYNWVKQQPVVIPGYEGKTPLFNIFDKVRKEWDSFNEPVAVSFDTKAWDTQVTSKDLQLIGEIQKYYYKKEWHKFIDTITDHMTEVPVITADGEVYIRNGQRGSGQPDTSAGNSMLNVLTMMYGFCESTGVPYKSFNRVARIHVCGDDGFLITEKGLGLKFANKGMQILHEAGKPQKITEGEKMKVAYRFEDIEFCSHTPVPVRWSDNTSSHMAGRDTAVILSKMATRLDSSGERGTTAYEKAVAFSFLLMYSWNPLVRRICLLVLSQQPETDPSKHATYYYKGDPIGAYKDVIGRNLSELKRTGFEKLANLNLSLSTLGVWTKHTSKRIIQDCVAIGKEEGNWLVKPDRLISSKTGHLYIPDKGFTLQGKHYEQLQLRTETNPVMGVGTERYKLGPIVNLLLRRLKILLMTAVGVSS
For the molecule B1, the binding result is listed as “binds”. In the case of B2, the binding result is reported as “binds”. As to B3, the binding result is given as “binds”. As for B4, the binding result is “binds”.

For the molecule B5, the binding result was “binds”. Consider B6, for which the binding result was “binds”. The result for B7 reads “binds”.
